Experimental data from article PMC7338394.

B1: truncated Myc-tagged DIX domain of DVL2 [human] / Dishevelled-2 (DVL2), full-length, Flag-tagged [human] (parent)
chain 1: VGETKVIYHLDEEETPYLVKIPVPAERITLGDFKSVLQRPAGAKYFFKSMDQDFGVVKEEISDDNARLPCFNGRVVSWLVSSD
chain 2: MAGSSTGGGGVGETKVIYHLDEEETPYLVKIPVPAERITLGDFKSVLQRPAGAKYFFKSMDQDFGVVKEEISDDNARLPCFNGRVVSWLVSSDNPQPEMAPPVHEPRAELAPPAPPLPPLPPERTSGIGDSRPPSFHPNVSSSHENLEPETETESVVSLRRERPRRRDSSEHGAGGHRTGGPSRLERHLAGYESSSTLMTSELESTSLGDSDEEDTMSRFSSSTEQSSASRLLKRHRRRRKQRPPRLERTSSFSSVTDSTMSLNIITVTLNMEKYNFLGISIVGQSNERGDGGIYIGSIMKGGAVAADGRIEPGDMLLQVNDMNFENMSNDDAVRVLRDIVHKPGPIVLTVAKCWDPSPQAYFTLPRNEPIQPIDPAAWVSHSAALTGTFPAYPGSSSMSTITSGSSLPDGCEGRGLSVHTDMASVTKAMAAPESGLEVRDRMWLKITIPNAFLGSDVVDWLYHHVEGFPERREARKYASGLLKAGLIRHTVNKITFSEQCYYVFGDLSGGCESYLVNLSLNDNDGSSGASDQDTLAPLPGATPWPLLPTFSYQYPAPHPYSPQPPPYHELSSYTYGGGSASSQHSEGSRSSGSTRSDGGAGRTGRPEERAPESKSGSGSESEPSSRGGSLRRGGEASGTSDGGPPPSRGSTGGAPNLRAHPGLHPYGPPPGMALPYNPMMVVMMPPPPPPVPPAVQPPGAPPVRDLGSVPPELTASRQSFHMAMGNPSEFFVDVM

Variants of: B1
Test: Co-IP (IP: Flag, immunoblot for Myc-DIX) with densitometry
Details: with Dishevelled-2 (DVL2), HEK293T cells, co-immunoprecipitated DIX levels normalized to immunoprecipitated DVL2 levels, three independent experiments, parent: 4.7, read off a plot

Variant	response
chain 1 VGETKVIYHLDEEETPYLVKIPVPAERITLGDFKSVLQRPAGAKYFFKSMDQDFGVVREEISDDNARLPCFNGRVVSWLVSSD [chain 1 K58R]	1.1
